# Reference: the Human Domainome abundance scans (Beltran et al. 2025)
# ± gives the uncertainty stated by the source.
# B1: Tudor domain-containing protein 3, residues 554 to 611; numbered along this chain, Q9H7E2 (parent)
# chain: KMWKPGDECFALYWEDNKFYRAEVEALHSSGMTAVVKFIDYGNYEEVLLSNIKPIQTE
# Variants of: B1
# Test: abundance fitness (aPCA) (normalised: wild type 0, dead -1); higher = more abundant; growth selection in yeast, the domain comes from the species named
# Settings: Homo sapiens
row,Variant,abundance fitness
1,P54C,-0.429 ± 0.093
2,P54D,-0.229 ± 0.1
3,P54R,-0.17 ± 0.054
4,P54V,-0.298 ± 0.077
5,Y44N,-0.111 ± 0.11
6,Y44D,-0.468 ± 0.089
7,Y44A,-0.065 ± 0.068
8,Y44I,-0.015 ± 0.13
9,T33E,-0.377 ± 0.092
10,E8N,-0.077 ± 0.11
11,E8K,0.017 ± 0.095
12,F10S,-0.234 ± 0.064
13,F10P,-0.923 ± 0.15
14,F38C,-0.935 ± 0.13
15,V35W,-0.087 ± 0.069
16,V24E,-1.04 ± 0.19
17,I39P,-0.278 ± 0.11
18,I39D,-0.469 ± 0.11
19,I39Q,-0.082 ± 0.093
20,I39M,-0.093 ± 0.078
21,I39K,0.044 ± 0.097
22,P5Y,-0.447 ± 0.14
23,P5N,0.03 ± 0.15
24,P5A,-0.017 ± 0.077

row,Variant,abundance fitness
1,S30P,-0.331 ± 0.094
2,S30A,-0.192 ± 0.061
3,S30Y,-0.463 ± 0.1
4,S30T,-0.119 ± 0.071
5,H28I,-0.508 ± 0.15
6,L12H,-0.552 ± 0.13
7,L12Y,-0.754 ± 0.2
8,E45N,-0.368 ± 0.17
9,E45V,-0.392 ± 0.072
10,E45C,-0.262 ± 0.079
11,E45T,-0.398 ± 0.098
12,W14V,-0.012 ± 0.057
13,W14P,0.041 ± 0.11
14,W14R,0.071 ± 0.056
15,G42P,-0.11 ± 0.14
16,G42D,0.059 ± 0.1
17,G42Q,-0.345 ± 0.15
18,G42L,-0.492 ± 0.13
19,R21N,-0.678 ± 0.15
20,R21P,-0.206 ± 0.077
21,R21D,-0.582 ± 0.14
22,R21V,-0.508 ± 0.078
23,R21S,-0.622 ± 0.069
24,E46C,-0.279 ± 0.099

row,Variant,abundance fitness
1,E46K,-0.205 ± 0.15
2,E46D,-0.149 ± 0.087
3,Y41Q,0.105 ± 0.086
4,Y41I,0.076 ± 0.11
5,Y41S,0.118 ± 0.061
6,Y41C,-0.019 ± 0.075
7,Y13C,0.068 ± 0.1
8,Y13F,0.065 ± 0.11
9,Y13P,-0.902 ± 0.13
10,Y13G,-0.252 ± 0.061
11,A22K,-1.03 ± 0.14
12,A22Y,-0.844 ± 0.27
13,A22V,-0.845 ± 0.069
14,A22C,-0.488 ± 0.12
15,L48E,-0.136 ± 0.089
16,L48F,-0.224 ± 0.11
17,E58M,-0.175 ± 0.14
18,E58I,-0.187 ± 0.23
19,E58G,-0.042 ± 0.082
20,E58D,-0.058 ± 0.081
21,N43E,-0.079 ± 0.061
22,K37M,-0.741 ± 0.11
23,K37E,-0.757 ± 0.094
24,K37F,-0.218 ± 0.15

row,Variant,abundance fitness
1,N51P,-1.02 ± 0.14
2,N51T,-0.529 ± 0.077
3,N51S,-0.205 ± 0.064
4,N51Y,-0.678 ± 0.16
5,N51K,-0.418 ± 0.076
6,N51I,-0.837 ± 0.13
7,N51F,-1.02 ± 0.19
8,A34H,-0.861 ± 0.23
9,A34F,-0.919 ± 0.21
10,A34W,-0.882 ± 0.12
11,A34I,-0.76 ± 0.18
12,T57S,0.021 ± 0.063
13,T57Y,-0.072 ± 0.11
14,M32Y,0.195 ± 0.12
15,M32S,0.02 ± 0.065
16,M32K,-0.165 ± 0.091
17,M32V,-0.054 ± 0.055
18,A26D,-0.165 ± 0.22
19,A26W,-0.195 ± 0.12
20,V36T,-0.777 ± 0.12
21,V36W,-0.833 ± 0.12
22,V36N,-1.11 ± 0.3
23,V36C,-0.584 ± 0.13
24,E23T,-0.004 ± 0.07

row,Variant,abundance fitness
1,E15Y,0.099 ± 0.11
2,E15T,-0.139 ± 0.073
3,E15V,-0.026 ± 0.061
4,E15H,-0.251 ± 0.11
5,V47M,-0.821 ± 0.093
6,V47C,-0.296 ± 0.11
7,K18Q,-0.144 ± 0.086
8,K18S,-0.254 ± 0.067
9,C9I,-0.975 ± 0.3
10,C9G,-0.869 ± 0.076
11,C9Y,-0.802 ± 0.099
12,C9T,-1.04 ± 0.16
13,C9F,-0.915 ± 0.16
14,C9S,-0.942 ± 0.1
15,C9H,-0.817 ± 0.26
16,Y20T,-0.871 ± 0.12
17,Y20I,-0.347 ± 0.098
18,Y20P,-0.918 ± 0.14
19,Y20S,-0.59 ± 0.083
20,E25P,-0.659 ± 0.11
21,E25G,-0.315 ± 0.063
22,L27R,-0.872 ± 0.078
23,L27D,-0.871 ± 0.14
24,L27Y,-0.911 ± 0.18

row,Variant,abundance fitness
1,L27Q,-1.13 ± 0.2
2,L27A,-0.651 ± 0.1
3,L27G,-0.974 ± 0.076
4,L27N,-0.879 ± 0.18
5,L27C,-0.183 ± 0.087
6,S50E,-0.118 ± 0.083
7,S50I,-0.192 ± 0.094
8,S50T,0.059 ± 0.086
9,Q56T,-0.003 ± 0.087
10,S29A,0.114 ± 0.075
11,S29Q,-0.11 ± 0.1
12,S29W,-0.368 ± 0.076
13,F19T,-0.747 ± 0.12
14,F19D,-0.881 ± 0.15
15,F19V,-0.756 ± 0.082
16,W3Y,-0.312 ± 0.12
17,W3D,-1.31 ± 0.34
18,K1V,-0.225 ± 0.13
19,K1C,-0.261 ± 0.4
20,K1L,-0.187 ± 0.18
21,K1N,0.085 ± 0.15
22,K1W,-0.336 ± 0.33
23,D7R,-0.762 ± 0.07
24,D7L,-0.731 ± 0.077

row,Variant,abundance fitness
1,D7K,-0.887 ± 0.12
2,D16Y,-0.691 ± 0.17
3,D16C,-0.961 ± 0.14
4,D16N,-0.417 ± 0.15
5,I55E,-0.558 ± 0.099
6,I55M,-0.096 ± 0.095
7,K53I,-0.145 ± 0.092
8,K53W,-0.242 ± 0.12
9,K53F,-0.229 ± 0.088
10,K53R,0.008 ± 0.06
11,K53M,-0.192 ± 0.12
12,K4F,-0.221 ± 0.078
13,K4W,-0.543 ± 0.083
14,K4C,-0.169 ± 0.084
15,K4Y,-0.17 ± 0.12
16,K4V,-0.244 ± 0.065
17,K4T,-0.059 ± 0.077
18,K4I,-0.415 ± 0.11
19,L49C,-0.243 ± 0.092
20,L49P,-0.922 ± 0.14
21,N17I,-0.742 ± 0.16
22,N17C,-0.349 ± 0.16
23,N17Y,-0.604 ± 0.2
